Assay results from patent EP4613276A2 (Actym Therapeutics, Inc., dated 2025).

Legend:
[1] = target: mouse TGF-β1 (R&D Systems) (mouse) (UniProt P04202); assay: direct ELISA with mouse TGF-β1 on HEK293T supernatant (media control 0.041 ± 0.002)
[2] = target: mouse TGF-β1 (R&D Systems) (mouse) (UniProt P04202); assay: direct ELISA with mouse TGF-β1 on concentrated HEK293T supernatant (media control 0.041 ± 0.002)
[3] = target: recombinant murine CTLA-4-human IgG1 Fc chimera (R&D Systems) (mouse; human) (UniProt P09793); assay: competitive ELISA: HEK293T supernatant mixed with 10 ng/ml murine CTLA-4-human IgG1 Fc, on coated mouse CD80 (competitor); anti-human IgG1-HRP detection
[4] = target: recombinant murine CTLA-4-human IgG1 Fc chimera (R&D Systems) (mouse; human) (UniProt P09793); assay: competitive ELISA: HEK293T supernatant mixed with 10 ng/ml murine CTLA-4-human IgG1 Fc, on coated mouse CD86 (competitor); anti-human IgG1-HRP detection
[5] = target: CD3 on Jurkat-Lucia™ NFAT cells (Homo sapiens (Human)) (UniProt P07766); assay: cell-based or functional assay
CD19 on Raji cells [6] = target: CD19 on Raji cells (UniProt P15391); assay: flow cytometry on Raji cells, BiTE detected with anti-FLAG-APC (anti-FLAG-APC only: 1439)
CD19 on Raji cells [7] = target: CD19 on Raji cells (UniProt P15391); assay: flow cytometry on Raji cells, concentrated supernatant, BiTE detected with anti-FLAG-APC (anti-FLAG-APC only: 1439)
[8] = target: CD3 on Jurkat-Lucia™ NFAT cells (Homo sapiens (Human)) (UniProt P07766); assay: flow cytometry on Jurkat-Lucia NFAT cells, concentrated supernatant, BiTE detected with anti-FLAG-APC (anti-FLAG-APC only: 1519)
[9] = target: CD3 on Jurkat-Lucia™ NFAT cells (Homo sapiens (Human)) (UniProt P07766); assay: flow cytometry on Jurkat-Lucia NFAT cells, BiTE detected with anti-FLAG-APC (anti-FLAG-APC only: 1519)
[10] = target: T1, recombinant murine CTLA-4-human IgG1 Fc chimera (R&D Systems) (mouse; human, UniProt P09793 36-162; P01857 100-330 = IgG part, limits assumed); assay: direct ELISA of transfected HEK293T supernatant on mouse CTLA-4-Fc; the grade is printed as the payload's expression level
T1 construct: Bought reagent; also called mouse CTLA-4-Fc

CD3 on Jurkat-Lucia™ NFAT cells (Homo sapiens (Human)), sequence (P07766 23-207 limits assumed, form in doubt, chain 1 of 3): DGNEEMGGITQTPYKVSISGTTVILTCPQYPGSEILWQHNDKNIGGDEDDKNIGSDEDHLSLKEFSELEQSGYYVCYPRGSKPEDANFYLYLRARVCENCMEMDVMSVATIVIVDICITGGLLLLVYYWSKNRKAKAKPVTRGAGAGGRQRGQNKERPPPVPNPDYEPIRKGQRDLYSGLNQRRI
CD3 on Jurkat-Lucia™ NFAT cells (Homo sapiens (Human)), sequence (delta, as listed by the source limits assumed, form in doubt, chain 2 of 3): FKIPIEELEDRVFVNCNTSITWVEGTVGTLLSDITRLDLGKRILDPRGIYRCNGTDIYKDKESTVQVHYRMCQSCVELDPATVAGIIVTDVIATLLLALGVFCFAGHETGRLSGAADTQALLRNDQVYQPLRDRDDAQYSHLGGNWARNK
CD3 on Jurkat-Lucia™ NFAT cells (Homo sapiens (Human)), sequence (gamma, as listed by the source limits assumed, form in doubt, chain 3 of 3): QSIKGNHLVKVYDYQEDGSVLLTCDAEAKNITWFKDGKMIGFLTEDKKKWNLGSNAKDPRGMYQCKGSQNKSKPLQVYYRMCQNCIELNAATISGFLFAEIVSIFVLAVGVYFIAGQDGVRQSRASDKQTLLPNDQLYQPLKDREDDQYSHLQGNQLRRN
mouse TGF-β1 (R&D Systems) (mouse), sequence (P04202 279-390 limits assumed): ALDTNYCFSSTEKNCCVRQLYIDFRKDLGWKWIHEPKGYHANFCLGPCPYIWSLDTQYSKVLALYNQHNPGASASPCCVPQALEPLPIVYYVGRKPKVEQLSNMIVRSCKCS
CD19 on Raji cells, sequence (P15391 20-556 limits assumed): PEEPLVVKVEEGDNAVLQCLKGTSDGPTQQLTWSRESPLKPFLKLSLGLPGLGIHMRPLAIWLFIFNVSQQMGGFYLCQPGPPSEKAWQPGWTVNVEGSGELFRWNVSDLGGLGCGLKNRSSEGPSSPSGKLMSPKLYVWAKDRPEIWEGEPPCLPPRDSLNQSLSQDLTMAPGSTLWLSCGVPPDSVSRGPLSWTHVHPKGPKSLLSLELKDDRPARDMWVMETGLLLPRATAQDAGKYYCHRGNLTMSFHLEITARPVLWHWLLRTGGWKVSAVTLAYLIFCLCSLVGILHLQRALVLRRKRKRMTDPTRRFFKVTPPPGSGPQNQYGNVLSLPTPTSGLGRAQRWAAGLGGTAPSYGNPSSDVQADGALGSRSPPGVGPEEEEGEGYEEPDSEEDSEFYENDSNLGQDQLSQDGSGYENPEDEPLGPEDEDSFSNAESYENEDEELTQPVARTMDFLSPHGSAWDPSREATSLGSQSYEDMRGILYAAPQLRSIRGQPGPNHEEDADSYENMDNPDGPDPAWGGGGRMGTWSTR

Soluble mouse TGFβ receptor II-Fc (Fc fusion)
Absorbance at 450 nm (absorbance at 450 nm) [1]: 1.51 | Absorbance at 450 nm (absorbance at 450 nm) [2]: 1.52

anti-CTLA-4 scFv (ipilimumab scFv antibody fragment)
% CD80 Blockade Activity [3]: 7% | % CD86 Blockade Activity [4]: 32.5%

CD3xCD19 bispecific T-cell engager (BiTE®), containing a FLAG tag and a His tag (bispecific antibody)
Luminescence (NFAT reporter), 1 Raji: 1 Jurkat, 6 hour time point, CD3xCD19 BiTE® [5]: 2060 Luminescence | Luminescence (NFAT reporter), 1 Raji: 1 Jurkat, 6 hour time point, concentrated CD3xCD19 BiTE® [5]: 4340 Luminescence | Luminescence (NFAT reporter), 1 Raji: 1 Jurkat, 24 hour time point, CD3xCD19 BiTE® [5]: 6020 Luminescence | Luminescence (NFAT reporter), 1 Raji: 1 Jurkat, 24 hour time point, concentrated CD3xCD19 BiTE® [5]: 18600 Luminescence | Luminescence (NFAT reporter), 2 Raji: 1 Jurkat, 6 hour time point, CD3xCD19 BiTE® [5]: 3440 Luminescence | Luminescence (NFAT reporter), 2 Raji: 1 Jurkat, 6 hour time point, concentrated CD3xCD19 BiTE® [5]: 12100 Luminescence | Luminescence (NFAT reporter), 2 Raji: 1 Jurkat, 24 hour time point, CD3xCD19 BiTE® [5]: 11300 Luminescence | Luminescence (NFAT reporter), 2 Raji: 1 Jurkat, 24 hour time point, concentrated CD3xCD19 BiTE® [5]: 47200 Luminescence | Mean Fluorescence Intensity (MFI) of APC+ Cells (CD19 on Raji cells [6]): 7410 MFI | Mean Fluorescence Intensity (MFI) of APC+ Cells (CD19 on Raji cells [7]): 16000 MFI | Mean Fluorescence Intensity (MFI) of APC+ Cells [8]: 14100 MFI | Mean Fluorescence Intensity (MFI) of APC+ Cells [9]: 4580 MFI

B1: anti-murine CTLA-4 scFv (derived from the 9D9 clone) (scFv)
scFv: DIVMTQTTLSLPVSLGDQASISCRSSQSIVHSNGNTYLEWYLQKPGQSPKLLIYKVSNRFSGVPDRFSGSGSGTDFTLKISRVEAEDLGVYYCFQGSHVPYTFGGGTKLEIKGGGGSGGGGSGGGGSEAKLQESGPVLVKPGASVKMSCKASGYTFTDYYMNWVKQSHGKSLEWIGVINPYNGDTSYNQKFKGKATLTVDKSSSTAYMELNSLTSEDSAVYYCARYYGSWFAYWGQGTLVTVSS
notes: Tested as HEK293T supernatant; also called anti-muCTLA-4 scFv
binding result [10]: binds

B2: anti-murine CTLA-4 scFv-Fc (derived from the 9D9 clone, mouse IgG2a Fc) (Fc fusion)
chain: DIVMTQTTLSLPVSLGDQASISCRSSQSIVHSNGNTYLEWYLQKPGQSPKLLIYKVSNRFSGVPDRFSGSGSGTDFTLKISRVEAEDLGVYYCFQGSHVPYTFGGGTKLEIKGGGGSGGGGSGGGGSEAKLQESGPVLVKPGASVKMSCKASGYTFTDYYMNWVKQSHGKSLEWIGVINPYNGDTSYNQKFKGKATLTVDKSSSTAYMELNSLTSEDSAVYYCARYYGSWFAYWGQGTLVTVSSEPRGPTIKPCPPCKCPAPNLLGGPSVFIFPPKIKDVLMISLSPIVTCVVVDVSEDDPDVQISWFVNNVEVHTAQTQTHREDYNSTLRVVSALPIQHQDWMSGKEFKCKVNNKDLPAPIERTISKPKGSVRAPQVYVLPPPEEEMTKKQVTLTCMVTDFMPEDIYVEWTNNGKTELNYKNTEPVLDSDGSYFMYSKLRVEKKNWVERNSYSCSVVHEGLHNHHTTKSFSRTPGK
notes: Tested as HEK293T supernatant; also called anti-muCTLA-4 scFv-Fc
binding result [10]: binds
